Assay results from paper PMC9482650, “Quantitative fragmentomics allow affinity mapping of interactomes” (Nature Communications, 2022).

T1: APBA2_1, Q99767
T1 sequence (Q99767 563-664, limits assumed, looked up): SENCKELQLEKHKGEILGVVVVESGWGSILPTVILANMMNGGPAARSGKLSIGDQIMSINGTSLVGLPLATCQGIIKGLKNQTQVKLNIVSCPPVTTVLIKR

T2: APBA1_1, Q02410
T2 sequence (Q02410 651-752, limits assumed, looked up): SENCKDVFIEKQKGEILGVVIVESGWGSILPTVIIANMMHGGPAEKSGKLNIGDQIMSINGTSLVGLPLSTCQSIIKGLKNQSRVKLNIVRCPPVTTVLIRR

T3: DVL3, Q92997
T3 sequence (Q92997 244-331, limits assumed, looked up): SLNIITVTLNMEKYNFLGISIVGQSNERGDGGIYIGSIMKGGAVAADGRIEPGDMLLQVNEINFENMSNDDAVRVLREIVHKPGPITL

T4: NHERF3_3, Q5T2W1
T4 sequence (Q5T2W1 238-333, limits assumed, looked up): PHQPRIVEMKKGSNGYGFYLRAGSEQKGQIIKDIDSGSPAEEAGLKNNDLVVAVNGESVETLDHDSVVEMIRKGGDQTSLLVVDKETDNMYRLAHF

T5: SNTA1, Q13424
T5 sequence (Q13424 82-180, limits assumed, looked up): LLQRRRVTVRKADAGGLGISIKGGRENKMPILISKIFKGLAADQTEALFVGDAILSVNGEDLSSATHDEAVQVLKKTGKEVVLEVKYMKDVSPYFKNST

T6: LIN7C, Q9NUP9
T6 sequence (Q9NUP9 88-185, limits assumed, looked up): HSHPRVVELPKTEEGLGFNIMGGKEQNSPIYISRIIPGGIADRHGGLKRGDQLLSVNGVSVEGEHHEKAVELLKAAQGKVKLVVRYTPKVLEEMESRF

T7: MPDZ_10, O75970
T7 sequence (O75970 1624-1722, limits assumed, looked up): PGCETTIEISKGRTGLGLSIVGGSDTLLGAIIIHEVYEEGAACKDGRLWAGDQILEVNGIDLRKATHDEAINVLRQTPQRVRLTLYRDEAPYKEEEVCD

T8: HTRA3, P83110
T8 sequence (P83110 354-453, limits assumed, looked up): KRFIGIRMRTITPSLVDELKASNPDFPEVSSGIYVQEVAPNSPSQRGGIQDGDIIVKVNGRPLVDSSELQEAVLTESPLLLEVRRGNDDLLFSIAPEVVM

T9: LNX2_3, Q8N448
T9 sequence (Q8N448 463-564, limits assumed, looked up): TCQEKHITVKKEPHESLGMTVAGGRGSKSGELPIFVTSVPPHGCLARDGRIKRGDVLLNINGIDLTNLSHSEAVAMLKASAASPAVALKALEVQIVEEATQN

T10: GRIP1_4, Q9Y3R0
T10 sequence (Q9Y3R0 467-571, limits assumed, looked up): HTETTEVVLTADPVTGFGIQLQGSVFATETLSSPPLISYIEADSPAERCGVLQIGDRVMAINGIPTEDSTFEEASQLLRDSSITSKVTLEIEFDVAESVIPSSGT

T11: LNX2_2, Q8N448
T11 sequence (Q8N448 334-432, limits assumed, looked up): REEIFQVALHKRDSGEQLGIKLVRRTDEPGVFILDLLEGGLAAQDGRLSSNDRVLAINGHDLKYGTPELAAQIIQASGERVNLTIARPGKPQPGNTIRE

T12: APBA2_2, Q99767
T12 sequence (Q99767 654-744, limits assumed, looked up): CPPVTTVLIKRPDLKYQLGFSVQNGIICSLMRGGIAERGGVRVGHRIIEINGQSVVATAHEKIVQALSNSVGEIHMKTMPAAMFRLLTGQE

T13: APBA1_2, Q02410
T13 sequence (Q02410 742-832, limits assumed, looked up): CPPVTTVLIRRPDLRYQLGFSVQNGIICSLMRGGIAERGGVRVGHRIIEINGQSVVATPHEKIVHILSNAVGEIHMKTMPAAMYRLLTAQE


Assays:
Assay in all cases: holdup assay
Parameters in all cases: key: below the threshold = too weak to quantify, mostly under pKd 3.1 to 4
Details in all cases: plain residues with an end cap or a label only (N-terminal biotin on a linker: ado-ado)
APBA2_1, Q99767 = target: T1, APBA2_1, Q99767
APBA1_1, Q02410 = target: T2, APBA1_1, Q02410
DVL3, Q92997 = target: T3, DVL3, Q92997
LNX1_2, Q8TBB1 = target: LNX1_2, Q8TBB1
Chain of LNX1_2, Q8TBB1 (Q8TBB1 371-470): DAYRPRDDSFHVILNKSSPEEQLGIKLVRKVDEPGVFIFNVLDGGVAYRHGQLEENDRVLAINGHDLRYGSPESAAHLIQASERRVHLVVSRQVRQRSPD

PDLIM1, O00151 = target: PDLIM1, O00151
Chain of PDLIM1, O00151 (O00151 1-87): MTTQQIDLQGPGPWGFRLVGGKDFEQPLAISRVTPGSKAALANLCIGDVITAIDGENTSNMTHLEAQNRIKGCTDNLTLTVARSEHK

MAGI2_2, Q86UL8 = target: MAGI2_2, Q86UL8
Chain of MAGI2_2, Q86UL8 (Q86UL8 410-522): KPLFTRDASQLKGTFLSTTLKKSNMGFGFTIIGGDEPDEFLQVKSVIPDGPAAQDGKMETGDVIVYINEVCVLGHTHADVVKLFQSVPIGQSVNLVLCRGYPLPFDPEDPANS

NHERF3_3, Q5T2W1 = target: T4, NHERF3_3, Q5T2W1
SNTA1, Q13424 = target: T5, SNTA1, Q13424
LIN7C, Q9NUP9 = target: T6, LIN7C, Q9NUP9
Inadl_4, Q8NI35 = target: Inadl_4, Q8NI35
Chain of Inadl_4, Q8NI35 (Q8NI35 547-651): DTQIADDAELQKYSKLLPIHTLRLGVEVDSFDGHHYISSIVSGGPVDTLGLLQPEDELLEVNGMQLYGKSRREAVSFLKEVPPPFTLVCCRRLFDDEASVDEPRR

MPDZ_10, O75970 = target: T7, MPDZ_10, O75970
FRMPD2_3, Q68DX3 = target: FRMPD2_3, Q68DX3
Chain of FRMPD2_3, Q68DX3 (Q68DX3 1073-1166): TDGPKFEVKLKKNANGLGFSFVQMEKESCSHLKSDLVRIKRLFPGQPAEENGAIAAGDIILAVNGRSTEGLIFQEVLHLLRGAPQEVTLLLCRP

HTRA3, P83110 = target: T8, HTRA3, P83110
GRID2IP_1, A4D2P6 = target: GRID2IP_1, A4D2P6
Chain of GRID2IP_1, A4D2P6 (A4D2P6 1-87): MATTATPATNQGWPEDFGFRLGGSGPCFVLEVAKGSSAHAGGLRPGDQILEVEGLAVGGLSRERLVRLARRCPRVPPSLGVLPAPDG

LNX2_3, Q8N448 = target: T9, LNX2_3, Q8N448
LNX1_3, Q8TBB1 = target: LNX1_3, Q8TBB1
Chain of LNX1_3, Q8TBB1 (Q8TBB1 500-596): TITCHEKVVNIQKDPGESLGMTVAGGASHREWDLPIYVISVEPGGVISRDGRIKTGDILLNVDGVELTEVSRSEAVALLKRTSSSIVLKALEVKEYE

GRIP1_4, Q9Y3R0 = target: T10, GRIP1_4, Q9Y3R0
GRIP2_4, Q9C0E4 = target: GRIP2_4, Q9C0E4
Chain of GRIP2_4, Q9C0E4 (Q9C0E4 446-548): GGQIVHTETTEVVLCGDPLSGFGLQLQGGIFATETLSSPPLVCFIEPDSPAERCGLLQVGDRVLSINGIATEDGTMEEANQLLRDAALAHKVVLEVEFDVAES

LNX2_2, Q8N448 = target: T11, LNX2_2, Q8N448
APBA2_2, Q99767 = target: T12, APBA2_2, Q99767
NHERF4_2, Q86UT5 = target: NHERF4_2, Q86UT5
Chain of NHERF4_2, Q86UT5 (Q86UT5 220-308): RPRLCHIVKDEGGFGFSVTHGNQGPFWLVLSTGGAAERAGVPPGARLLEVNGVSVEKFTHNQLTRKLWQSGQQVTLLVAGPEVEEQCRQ

NHERF4_4, Q86UT5 = target: NHERF4_4, Q86UT5
Chain of NHERF4_4, Q86UT5 (Q86UT5 464-550): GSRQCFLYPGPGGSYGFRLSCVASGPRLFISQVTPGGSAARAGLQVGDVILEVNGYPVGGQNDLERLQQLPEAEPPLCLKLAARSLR

APBA1_2, Q02410 = target: T13, APBA1_2, Q02410
SCRIB_1, Q14160 = target: SCRIB_1, Q14160
Chain of SCRIB_1, Q14160 (Q14160 718-814): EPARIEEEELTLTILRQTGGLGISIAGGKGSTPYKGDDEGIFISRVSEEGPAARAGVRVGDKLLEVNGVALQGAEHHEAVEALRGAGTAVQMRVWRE

DLG4_1, P78352 = target: DLG4_1, P78352
Chain of DLG4_1, P78352 (P78352 62-152): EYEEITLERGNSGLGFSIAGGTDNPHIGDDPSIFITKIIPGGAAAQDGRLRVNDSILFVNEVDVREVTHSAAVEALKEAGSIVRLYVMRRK

| Binder | pKd (APBA2_1, Q99767) | pKd (APBA1_1, Q02410) | pKd (DVL3, Q92997) | pKd (LNX1_2, Q8TBB1) | pKd (PDLIM1, O00151) | pKd (MAGI2_2, Q86UL8) | pKd (NHERF3_3, Q5T2W1) | pKd (SNTA1, Q13424) | pKd (LIN7C, Q9NUP9) | pKd (Inadl_4, Q8NI35) | pKd (MPDZ_10, O75970) | pKd (FRMPD2_3, Q68DX3) | pKd (HTRA3, P83110) | pKd (GRID2IP_1, A4D2P6) | pKd (LNX2_3, Q8N448) | pKd (LNX1_3, Q8TBB1) | pKd (GRIP1_4, Q9Y3R0) | pKd (GRIP2_4, Q9C0E4) | pKd (LNX2_2, Q8N448) | pKd (APBA2_2, Q99767) | further results |
| --- | --- | --- | --- | --- | --- | --- | --- | --- | --- | --- | --- | --- | --- | --- | --- | --- | --- | --- | --- | --- | --- |
| LEPAVRSSEL [SH2D3C, Q8N5H7] | below the threshold | below the threshold | below the threshold | below the threshold | 3.5 | below the threshold | below the threshold | 3.95 | below the threshold | below the threshold | below the threshold | below the threshold | below the threshold | below the threshold | below the threshold | below the threshold | below the threshold | below the threshold | below the threshold | below the threshold | pKd (NHERF4_2, Q86UT5): below the threshold; pKd (NHERF4_4, Q86UT5): 3.6; pKd (APBA1_2, Q02410): below the threshold; pKd (SCRIB_1, Q14160): 3.78; pKd (DLG4_1, P78352): below the threshold |
| QFTLRHWLKV [SLC6A3, Q01959] | 3.48 | below the threshold | below the threshold | 3.84 | below the threshold | 3.68 | below the threshold | below the threshold | below the threshold | below the threshold | below the threshold | below the threshold | below the threshold | below the threshold | below the threshold | 3.83 | below the threshold | below the threshold | 4.84 | below the threshold | pKd (NHERF4_2, Q86UT5): below the threshold; pKd (NHERF4_4, Q86UT5): 3.65; pKd (APBA1_2, Q02410): below the threshold; pKd (SCRIB_1, Q14160): below the threshold; pKd (DLG4_1, P78352): below the threshold |
| RELVMRVTTV [MARCHF4, Q9P2E8] | below the threshold | below the threshold | below the threshold | 4.58 | below the threshold | 5.12 | below the threshold | 5.1 | 4.3 | below the threshold | 4.35 | below the threshold | below the threshold | below the threshold | below the threshold | below the threshold | below the threshold | below the threshold | 5.27 | below the threshold | pKd (NHERF4_2, Q86UT5): below the threshold; pKd (NHERF4_4, Q86UT5): below the threshold; pKd (APBA1_2, Q02410): 3.65; pKd (SCRIB_1, Q14160): 4.67; pKd (DLG4_1, P78352): 5.03 |
| DQPLEKSTKL [AKAP10, O43572] | below the threshold | below the threshold | below the threshold | below the threshold | below the threshold | below the threshold | 4.79 | 3.71 | below the threshold | below the threshold | below the threshold | below the threshold | below the threshold | below the threshold | below the threshold | below the threshold | below the threshold | below the threshold | below the threshold | below the threshold | pKd (NHERF4_2, Q86UT5): below the threshold; pKd (NHERF4_4, Q86UT5): below the threshold; pKd (APBA1_2, Q02410): below the threshold; pKd (SCRIB_1, Q14160): 3.72; pKd (DLG4_1, P78352): below the threshold |
| PASAKGPLGV [CLDN19, Q8N6F1] | below the threshold | below the threshold | below the threshold | below the threshold | below the threshold | below the threshold | below the threshold | below the threshold | below the threshold | below the threshold | below the threshold | below the threshold | below the threshold | below the threshold | below the threshold | below the threshold | below the threshold | below the threshold | below the threshold | below the threshold | pKd (NHERF4_2, Q86UT5): below the threshold; pKd (NHERF4_4, Q86UT5): below the threshold; pKd (APBA1_2, Q02410): below the threshold; pKd (SCRIB_1, Q14160): below the threshold; pKd (DLG4_1, P78352): below the threshold |
